Measurements as given in patent US20210283054A1.

Assays:
[1] = tested on: T1, Thrombin Homopolymer (10 mer)
T1 sequence: GALVPRGSGERDG

[2] = tested on: T2, Thrombin Homopolymer (20 mer)
T2 sequence: GALVPRGSGERDG

[3] = tested on: T3, Thrombin Homopolymer (30 mer)
T3 sequence: GALVPRGSGERDG

[4] = tested on: T4, thrombin substrate monomer (norbornene-GALVPRGSGERDG-NH2)
T4 sequence: GALVPRGSGERDG

[5] = biological target: Fluorogenic Homopolymer (DP=20) of NorGly-E(EDANS)…(dabcyl)GSGSG-NH2; experiment: cell-based or functional assay
[6] = biological target: NorGly-E(EDANS)…(dabcyl)GSGSG-NH2; experiment: cell-based or functional assay

| Homopolymer V0 (initial velocity of proteolysis) [5] | Monomer V0 (initial velocity of proteolysis) [6] | fold faster initial rate (V0) of the monomer than of the homopolymer [6] | Substance | proteolytic cleavage by RP-HPLC [1] | proteolytic cleavage by RP-HPLC [2] | proteolytic cleavage by RP-HPLC [3] | proteolytic cleavage by RP-HPLC [4] |
| --- | --- | --- | --- | --- | --- | --- | --- |
| – | – | – | thrombin (Sigma, cat. #T6884-100UN) | homopolymers at several degrees of polymerization were resistant to cleavage relative to the monomer, albeit not completely shut off from proteolysis | homopolymers at several degrees of polymerization were resistant to cleavage relative to the monomer, albeit not completely shut off from proteolysis | homopolymers at several degrees of polymerization were resistant to cleavage relative to the monomer, albeit not completely shut off from proteolysis | the monomeric peptide was readily degraded by thrombin |
| 0.0021 µM/min | 0.2 µM/min | 17 to 95 fold | Pronase (Roche, cat. #10165921001) | – | – | – | – |
